Measured values: publication PMC11758708, “Natural variation in MdNAC5 contributes to fruit firmness and ripening divergence in apple”

Target: MdNAC5A (Malus x domestica (Fuji / Cripp's Pink), UniProt A0A498K6T8 1-364)
Assay: EMSA; EMSA/Gel-Shift Kit (Beyotime) per instructions; buffer, salt, pH and temperature not stated
Conditions: protein: recombinant; tags: His (pET-32a); chain copies: 2; label: 3' biotin (both strands); blunt

Sequence of MdNAC5A (A0A498K6T8 entry or part of it): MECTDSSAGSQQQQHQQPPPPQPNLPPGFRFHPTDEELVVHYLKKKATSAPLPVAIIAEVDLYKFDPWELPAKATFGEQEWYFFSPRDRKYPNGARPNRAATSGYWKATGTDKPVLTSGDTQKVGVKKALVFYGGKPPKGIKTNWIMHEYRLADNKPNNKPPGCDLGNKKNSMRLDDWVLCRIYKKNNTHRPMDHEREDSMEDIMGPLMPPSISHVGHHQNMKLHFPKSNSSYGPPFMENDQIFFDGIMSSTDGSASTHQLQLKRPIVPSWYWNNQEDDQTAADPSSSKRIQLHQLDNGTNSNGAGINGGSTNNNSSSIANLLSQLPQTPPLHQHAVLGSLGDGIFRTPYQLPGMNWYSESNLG

B1: MdACS1 probe (dsDNA)
DNA 1: CCTGTGACAATATTACATGTGGCATGTCAATTGAGA
DNA 2: TCTCAATTGACATGCCACATGTAATATTGTCACAGG
Q: Does B1 bind?
A: binds
